B1: Recombinant human MANF protein (natural protein, UniProt P55145 25-182, looked up)
chain: LRPGDCEVCISYLGRFYQDLKDRDVTFSPATIENELIKFCREARGKENRLCYYIGATDDAATKIINEVSKPLAHHIPVEKICEKLKKKDSQICELKYDKQIDLSTVDLKKLRVKELKKILDDWGETCKGCAEKSDYIRKINELMPKYAPKAASARTDL
notes: MANF, human, mature protein secreted from CHO-derived cells; also called wild-type MANF; FL-MANF; source: CHO-derived cell line (QMCF technology), purified from culture media (Q FF, SP HP, SEC)

Legend:
Conditions in all cases: both partners purified
[1] = biological target: T1, Recombinant hamster GRP78 protein (hamster, UniProt G3I8R9 19-654, RED-tris-NTA dye held on the His-tag); experiment: MST; GRP78 or its variants labelled through the N-terminal His-tag, constant 20 nM; ligand titrated in 2-fold dilutions; 25 °C; MST buffer (10 mM Na-phosphate pH 7.4, 1 mM MgCl2, 3 mM KCl, 150 mM NaCl, 0.05% Tween-20); no nucleotide; for MANF with GRP78 also 0, 1, 100 or 200 uM CaCl2; fit with 1:1 stoichiometry
T1 construct: GRP78 (BiP), hamster; also called BiP; full-length GRP78; not shown: His-tag, N-terminal, kept

[2] = biological target: T1, Recombinant hamster GRP78 protein; experiment: MST; as a4, in the presence of ADP
[3] = biological target: T1, Recombinant hamster GRP78 protein; experiment: MST; as a4, in the presence of AMP
[4] = biological target: B1; experiment: MST; GRP78 or its variants labelled through the N-terminal His-tag, constant 20 nM; ligand titrated in 2-fold dilutions; 25 °C; MST buffer (10 mM Na-phosphate pH 7.4, 1 mM MgCl2, 3 mM KCl, 150 mM NaCl, 0.05% Tween-20); no nucleotide; for MANF with GRP78 also 0, 1, 100 or 200 uM CaCl2; fit with 1:1 stoichiometry

T1 sequence (G3I8R9 19-654): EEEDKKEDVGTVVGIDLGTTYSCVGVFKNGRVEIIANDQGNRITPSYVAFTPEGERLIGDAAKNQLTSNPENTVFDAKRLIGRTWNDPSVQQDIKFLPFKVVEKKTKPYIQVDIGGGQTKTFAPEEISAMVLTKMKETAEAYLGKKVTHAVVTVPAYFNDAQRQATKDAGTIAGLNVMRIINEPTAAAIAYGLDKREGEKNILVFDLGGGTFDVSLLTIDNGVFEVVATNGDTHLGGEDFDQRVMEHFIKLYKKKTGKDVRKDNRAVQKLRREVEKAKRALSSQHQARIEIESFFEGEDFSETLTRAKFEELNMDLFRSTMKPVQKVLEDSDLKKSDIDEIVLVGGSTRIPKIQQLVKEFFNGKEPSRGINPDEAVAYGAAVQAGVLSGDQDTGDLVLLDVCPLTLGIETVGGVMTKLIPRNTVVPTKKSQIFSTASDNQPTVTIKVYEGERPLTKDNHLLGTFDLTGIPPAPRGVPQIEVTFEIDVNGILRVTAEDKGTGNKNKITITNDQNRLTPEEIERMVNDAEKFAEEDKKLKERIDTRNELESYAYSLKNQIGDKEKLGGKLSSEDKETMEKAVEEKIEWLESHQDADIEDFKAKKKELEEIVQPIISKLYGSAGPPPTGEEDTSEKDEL

Binder | Kd [1] | Kd [2] | Kd [3] | Kd [4]
B1 | 380 nM | 5690 nM | 260 nM | 
HTFPAVL (peptide derived from the CH1 domain of an IgG heavy chain; also called IgG heavy chain-derived peptide; source: synthetic peptide (custom synthesis by Pepscan)) [CH1-derived substrate peptide (HTFPAVL)] | 220 nM | 120 nM |  | 
Nucleotide-binding domain (NBD) of GRP78 (domain or fragment, RED-tris-NTA dye held on the His-tag) not shown |  |  |  | 280 nM
